Laboratory results from publication PMC6872946 (Growth factors (Chur, Switzerland), 2019).
Read-outs that look alike come from different tables or passages of the source.

How the values were obtained:
[1] = target: PDGF-C growth factor domain (human); experiment: immunoblot after cleavage with matriptase
[2] = target: the molecule itself; experiment: non-reducing SDS-PAGE and immunoblot
[3] = target: the molecule itself; experiment: non-reducing SDS-PAGE and immunoblot; remark: listed apart in the source

## PDGF-C growth factor domain (domain or fragment)
[1]
  stoichiometry N: 2

B1: truncated PDGF-C isoform with a C-terminal myc tag (t-PDGF-C-myc), in COS-1 cells (natural protein, human, UniProt Q9NRA1 164-345, looked up)
chain: MPQFTEAVSPSVLPPSALPLDLLNNAITAFSTLEDLIRYLEPERWQLDLEDLYRPTWQLLGKAFVFGRKSRVVDLNLLTEEVRLYSCTPRNFSVSIREELKRTDTIFWPGCLLVKRCGGNCACCLHNCNECQCVPSKVTKKYHEVLQLRPKTGVRGLHKSLTDVALEHHEECDCVCRGSTGG
[2]
  stoichiometry N: 2

B2: truncated PDGF-C isoform with a myc tag (t-PDGF-C/myc), stably expressed in BT-549 cells (natural protein, human, UniProt Q9NRA1 164-345, looked up)
chain: B1 chain
[3]
  stoichiometry N: 2
